Measurements published in patent publication US20220306690A1 (CURATORS OF THE UNIVERSITY OF MISSOURI, published 2022).

Experiments:
[1] = target: T1, HIV-1 capsid protein (CA) hexamer (HIV-1, UniProt O12157 131-361, fluorescently labeled with Alexa Fluor 647 analog NT647 (site of labeling not stated)); experiment: MicroScale Thermophoresis; Kd of Pep-2-cyclic (32 nM) against Kd of small molecule PF74 ([…] nM) on CA-hexamers
T1 construct: also called CA-hexamers

[2] = target: T1, HIV-1 capsid protein (CA) hexamer; experiment: MicroScale Thermophoresis; 200 nM NT647-labeled CA-hexamers, Pep-2-cyclic titrated 1 nM to 2000 nM; fit to quadratic equation
[3] = target: T1, HIV-1 capsid protein (CA) hexamer; experiment: MicroScale Thermophoresis (MST), 200 nM NT647-labelled CA-hexamers, Pep-2-cyclic titrated 1 nM to 2000 nM [B panel A]

B1: Pep-2-cyclic: Cyc(SGVFTFGPVNFPG) (peptide)
peptide: SGVFTFGPVNFPG
modifications: head-to-tail cyclic: cyclized by coupling the C-terminal carboxylic acid and the N-terminal amino group
- fold greater affinity than PF74 [1]: ~7 fold
- Kd [2]: 32 nM
- EC50 (read off the curve) [3]: ~70 nM
